Like-named read-outs stand apart in the source and are kept apart here.

The results in this text go back to patent publication US20220411492A1 (QILU PHARMACEUTICAL, published 2022).

Assay [1] addresses T1, human Claudin 18.2 (hCLDN18.2) (human, UniProt P56856-2 1-261). In words: FACS, HEK293-hCLDN18.2 cells. In general terms: Flow cytometry measures light scatter and fluorescence of single cells or particles in a stream.
In assay [2] the target is T1, human Claudin 18.2 (hCLDN18.2). Put plainly: FACS, HEK293-hCLDN18.2 cells. The source holds these as a separate data set.
The target is the same in assay [3]. In words: FACS, PDX-hCLDN18.2 gastric cancer tumor tissue-derived cells.
The target is the same in assay [4]. Put plainly: cell-based or functional assay.
Assay [5] has the same target. In words: FACS, PDX-hCLDN18.2 gastric cancer tumor tissue-derived cells. The source holds these as a separate data set.
Assay [6] has as its target murine CLDN18.2 (mCLDN18.2) (murine) (UniProt P56857). Put plainly: FACS, HEK293-mCLDN18.2 cells.
The target in assay [7] is T1, human Claudin 18.2 (hCLDN18.2). In words: FACS, HEK293-hCLDN18.2 cells. This is another data set of the same source.
In assay [8] the target is murine CLDN18.2 (mCLDN18.2) (murine) (UniProt P56857). Put plainly: FACS, HEK293-mCLDN18.2 cells. The source holds these as a separate data set.
In assay [9] the target is T1, human Claudin 18.2 (hCLDN18.2). In words: cell-based or functional assay. This is another data set of the same source.
For assay [10] the target is unchanged. In words: cell-based or functional assay. The source holds these as a separate data set.
Assay [11] has the same target. In words: FACS, PDX-hCLDN18.2 gastric cancer tumor tissue-derived cells. As for the experimental part: (§1) Using flow cytometry measurement, the mean fluorescence intensity (hereinafter referred to as MFI) for each concentration was calculated by the software, and then the half binding concentration (EC₅₀) and the mean maximum fluorescence intensity (Top MFI) were calculated by GraphPad software, and the results were shown in Table 11.

Assay [12] has the same target. Put plainly: FACS, HEK293-hCLDN18.2 cells. The protocol:
as §1

The target is the same in assay [13]. In words: cell-based or functional assay. The source holds these as a separate data set.

In general, EC50 refers to the midpoint of the concentration-response curve. Read a high EC50 as a less potent agent. “chimeric antibody ch-175D10 from patent CN103509110B”: the Mean maximum fluorescence intensity (Top MFI) in [1] was 26900 MFI; in [2], 5450 MFI; in assay [3], 5700 MFI; in assay [5] it was 7160 MFI; in assay [6], 4190 MFI; in assay [7] it was 2840 MFI. The same molecule displayed a Mean maximum fluorescence intensity (Top MFI) in [8] of 86400 MFI. Also, the concentration for a half-maximal effect (EC50) in [2] worked out at 0.881 nM; in assay [3] it was 24.9 nM; in assay [5] it was 63.9 nM; in assay [6], 1.01 nM; in assay [7], 0.156 µg/mL; in assay [8], 0.136 µg/mL. Besides, the CDC EC50 in [4] was determined as 1.55 µg/mL; in assay [9] it was 1.19 µg/mL. In addition, the CDC Maximum lysis (%) in [4] turned out to be 87.8%; in assay [9] it was 87.4%. Further, the ADCC EC50 in assay [9] is 0.021 µg/mL. Also, the ADCC Maximum lysis (%) in [9] stood at 31.8%.

B1: hu253C4-N31Q-1 (antibody, V domains shown)
VH: QVQLVQSGAEVKKPGASVKVSCKASGYIFTSYWIHWVRQAPGQGLEWMGRFYPGTGTAYYNENFEGRVTMTRDTSISTAYMELSRLRSDDTAVYYCAREGYGKGNSMDYWGQGTTVTVSS
VL: DIVMTQSPDSLAVSLGERATINCKSSQSLLQSGNQKNYLTWYQQKPGQPPKLLIYWASTRESGVPDRFSGSGSGTDFTLTISSLQAEDVAVYYCQNDYYFPFTFGGGTKLEIK
As to B1, in assay [1], the EC50 stood at 0.216 nM and the Mean maximum fluorescence intensity (Top MFI) stood at 23000 MFI. Further, in [3], the EC50 was determined as 12 nM and the Mean maximum fluorescence intensity (Top MFI) turned out to be 16300 MFI. In assay [4], this molecule returned an ADCC EC50 of 0.024 µg/mL, an ADCC Maximum lysis (%) of 54.9%, a CDC EC50 of 0.175 µg/mL and a CDC Maximum lysis (%) of 96.3%. Moreover, in [6], the EC50 was determined as 0.19 µg/mL and the Mean maximum fluorescence intensity (Top MFI) came out at 65000 MFI.

B2: hu253C4-N31Q-2 (antibody, V domains shown)
VH: QVQLVQSGAEVKKPGASVKVSCKASGYIFTSYWIHWVRQAPGQGLEWMGRFYPGTGTAYYNENFEGRVTMTRDTSISTAYMELSRLRSDDTAVYYCAREGYGKGNSMDYWGQGTTVTVSS
VL: DIVMTQSPDSLAVSLGERVTLNCKSSQSLLQSGNQKNYLTWYQQKPGQPPKLLIYWASTRESGVPDRFSGSGSGTDFTLTVSSVQAEDVAVYYCQNDYYFPFTFGGGTKLEIK
As to B2, in assay [1], the EC50 was 0.361 nM and the Mean maximum fluorescence intensity (Top MFI) is 29000 MFI. Besides, in assay [3], the EC50 came out at 11.4 nM and the Mean maximum fluorescence intensity (Top MFI) came out at 15600 MFI. Besides, in assay [4], the ADCC EC50 stood at 0.037 µg/mL, the ADCC Maximum lysis (%) came to 58.8%, the CDC EC50 is 0.149 µg/mL and the CDC Maximum lysis (%) turned out to be 97.5%. In assay [6], this molecule came in with an EC50 of 0.026 µg/mL and a Mean maximum fluorescence intensity (Top MFI) of 36800 MFI.

B3: hu253C4-N31Q-3 (antibody, V domains shown)
VH: QVQLVQSGAEVKKPGASVKVSCKTSGYIFTSYWIHWVRQAPGQGLEWMGRFYPGTGTAYYNENFEGRVTLTADTSISTAYMELSRLRSDDTAVYYCTREGYGKGNSMDYWGQGTTVTVSS
VL: DIVMTQSPDSLAVSLGERATINCKSSQSLLQSGNQKNYLTWYQQKPGQPPKLLIYWASTRESGVPDRFSGSGSGTDFTLTISSLQAEDVAVYYCQNDYYFPFTFGGGTKLEIK
On to B3, for which, in [1], the EC50 is 0.145 nM and the Mean maximum fluorescence intensity (Top MFI) amounted to 18800 MFI. In assay [3], this molecule displayed a concentration giving a half-maximal response (EC50) of 25.6 nM and a Mean maximum fluorescence intensity (Top MFI) of 21600 MFI. In [4], the ADCC EC50 was found to be 0.038 µg/mL, the ADCC Maximum lysis (%) is 70.3%, the CDC EC50 was determined as 0.128 µg/mL and the CDC Maximum lysis (%) worked out at 96.1%. In assay [6], the 50% effective concentration (EC50) is 0.03 µg/mL and the Mean maximum fluorescence intensity (Top MFI) turned out to be 42100 MFI.

B4: hu299B2-S32A-4 (antibody, V domains shown)
VH: QVQLVQSGAEVKKPGASVKVSCKTSGYIFTNYWIHWVRQAPGQGLEWMGRIYPGTGNTYYNEKFTGRVTLTADTSTSTVYMELSSLRSEDTAVYYCSREGYGKGNSMDYWGQGTTVTVSS
VL: DIVMTQSPDSLAVSLGERATINCKSSQSLLNAGNQKNYLTWYQQKPGQPPKLLIYWASTRESGVPDRFSGSGSGTDFTLTISSLQAEDVAVYYCQNAYYYPYTFGGGTKLEIK
notes: also called humanized antibody hu299B2-S32A
In the case of B4, in [10], the “CDC EC50” value stood at 0.123 µg/mL and the “CDC Maximum lysis (%)” value worked out at 99.9%. Also, in [11], the EC50 was found to be 29.3 nM and the “Mean maximum fluorescence intensity (Top MFI)” value was found to be 23000 MFI. In assay [12], the EC50 amounted to 0.318 nM and the “Mean maximum fluorescence intensity (Top MFI)” value was found to be 31200 MFI. In assay [6], this molecule returned an EC50 of 0.281 µg/mL and a Mean maximum fluorescence intensity (Top MFI) of 84900 MFI. In addition, in assay [13], the “ADCC EC50” value worked out at 0.024 µg/mL and the “ADCC Maximum lysis (%)” value was 63.2%.

B5: hu299B2-S32A-3 (antibody, V domains shown)
VH: QVQLVQSGAEVKKPGASVKVSCKASGYIFTNYWIHWVRQAPGQGLEWMGRIYPGTGNTYYNEKFTGRVTMTRDTSTSTVYMELSSLRSEDTAVYYCAREGYGKGNSMDYWGQGTTVTVSS
VL: DIVMTQSPDSLAVSLGERVTMNCKSSQSLLNAGNQKNYLTWYQQKPGQPPKLLFYWASTRESGVPDRFSGSGSGTDFTLTISSVQAEDVAVYHCQNAYYYPYTFGGGTKLEIK
notes: as for B4
On to B5, for which, in assay [10], the “CDC EC50” value was determined as 0.092 µg/mL and the “CDC Maximum lysis (%)” value is 99.8%. In assay [11], the EC50 was determined as 26.1 nM and the “Mean maximum fluorescence intensity (Top MFI)” value was 24300 MFI. For the same molecule, in assay [12], a half-maximal effect (EC50) was put at 0.399 nM and the “Mean maximum fluorescence intensity (Top MFI)” value is 40000 MFI. In addition, in assay [6], the EC50 was found to be 0.342 µg/mL and the Mean maximum fluorescence intensity (Top MFI) is 103000 MFI. Also, in [13], the “ADCC EC50” value was determined as 0.022 µg/mL and the “ADCC Maximum lysis (%)” value was 69.1%.
